# Measured values from the supplement of paper PMC9170038.
# System: MS2 coat protein
# Assay: apparent KD of MS2 coat protein; designed switch direction (-1 OFF switch, 1 ON switch): -1; higher = weaker reporter binding
# Summary of the method: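 On Illumina chips, designed RNA switches with common flanks were made by stalled E. coli RNA polymerase. Titrations with SNAP-549-labelled MS2 coat protein, doubling from 0.7 or 1.5 nM to 3 µM, were done with no input, with 200 uM small-molecule ligand, or with an oligonucleotide input. Apparent KD is the median per design over clusters, from curve fits of normalised cluster fluorescence.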
# [1] = input ligand: microRNA oligo, concentration not stated
# [2] = Eterna round: R95, input ligand: microRNA oligo, concentration not stated
# [3] = Eterna round: R95, input ligand: FMN 200 uM
# [4] = Eterna round: R95, input ligand: none
Sequence,apparent KD of MS2 coat protein (input ligand: FMN 200 uM),apparent KD of MS2 coat protein (input ligand: none),other results
"UCACGGGACUGAGGAUAUACAUGAAUUAUUUUUGUAGAAGGCAGAAUGUUAGAUUAUUCACUAUACAUGAGGAUCACCCAUGUU [JR_ExcNG1_Sub022] (Eterna round: R96, puzzle: Exclusion NG 1)",,,apparent KD of MS2 coat protein [1]: 18.8 nM
"UCACGGGAUUGAGGAUAUAUAUGAAUUUUUUUUAUAGAAGGCAAAAUGUUAGAUUAUUCACUAUACAUGAGGAUCACCCAUGUU [JR_ExcBG1_Sub075] (Eterna round: R96, puzzle: Exclusion NG 1)",,,apparent KD of MS2 coat protein [1]: 20.3 nM
"UCACGGGAUUGAGGAUAUAUAUUAAUUUUUACAAUAGAAGGCAAAUUUUUAGUUUUUUCACUUUACAUGAGGAUCACCCAUGUU [JR_ExcBG1_Sub081] (Eterna round: R96, puzzle: Exclusion NG 1)",,,apparent KD of MS2 coat protein [1]: 20.5 nM
"UCACGGGUUUGAGGAUAUAUUAUUAUUAUUUAAAUAGAAGGCAAAGAAAUUGUUAUUUCACUAUACAUGAGGAUCACCCAUGUU [JR_ExcNG1_Sub088] (Eterna round: R96, puzzle: Exclusion NG 1)",,,apparent KD of MS2 coat protein [1]: 19.5 nM
UCAUAACAUGAGGAUCACCCAUGUCAGGAUAUGAUACUAUGUACUUCGGUACAUAGUAUCAGAAGGGACAUACU [Ex1-3: 12] (puzzle: Exclusion 1),,,apparent KD of MS2 coat protein [2]: 103 nM
UCAUAACAUGAGGAUCACCCAUGUGAGGAUAUGAUACUAUGUACUUCGGUACAUAGUAUCAGAAGGCACAUGCU [Brourd's Ex1-3: 11 (nt 72 G)] (puzzle: Exclusion 1),,,apparent KD of MS2 coat protein [3]: 34.8 nM; apparent KD of MS2 coat protein [2]: 127 nM; apparent KD of MS2 coat protein [4]: 127 nM
UCAUGGUAGCAGGAUAUGCUUGUUUAAUUUUUUGCAGAAGGGCUAACAUGAGGAUCACCCAUGUGAGAGGUCUA [JR_E6_Sub065] (puzzle: Exclusion 6),,,apparent KD of MS2 coat protein [3]: 31 nM; apparent KD of MS2 coat protein [2]: 64.3 nM; apparent KD of MS2 coat protein [4]: 144 nM
UCAUGUUUAGAGGAUAUGAUUACUCUAGAGUGAUCAGAAGGCUAGACAUGAGGAUCACCCAUGUCAGAACAUGA [Exclusion 6 - B - 16:b] (puzzle: Exclusion 6),,,apparent KD of MS2 coat protein [3]: 95.4 nM; apparent KD of MS2 coat protein [2]: 47.6 nM; apparent KD of MS2 coat protein [4]: 46.5 nM
"UCCGCGCGCUUGCGCGCGGACAUGAGGAUCACCCAUGUCGGGCUUUUUGCUCGUUUUGUUGCGCGCGUUCGCGCGCG [Revision to Olbi_3 by Sunset] (Eterna round: R97, puzzle: Sensor, turn-off variant 1)",89.1 nM,101 nM,
"UCCGGACAUGAGGAUCACCCAUGUGAGGAUAUUGUCGACACGACUGAAAGGAUCACGGCGAGAAGGCGCUUGGA [Eternabot (L2) Solution 48] (Eterna round: R97, puzzle: Exclusion 1)",25.7 nM,21.6 nM,
"UCCUCACAUGAGGAUCACCCAUGUCAGGAUAUACGAACGGUAAGUGACAAUCGAUUACGUAGAAGGGACUGCGG [Eternabot (L1) Solution 78] (Eterna round: R97, puzzle: Exclusion 1)",110 nM,121 nM,
"UCCUCACAUGAGGAUCACCCAUGUGAGGAUAUCAUGCUUCGUAGUAAACUACGAAGUGUGAGAAGGCACAUGGC [Omei Ex1 D15] (Eterna round: R97, puzzle: Exclusion 1)",23.9 nM,19.6 nM,
"UCCUCACAUGAGGAUCACCCAUGUUAGGAUAUCUUAGAGCGCGAAAGACAGUUCUUUAAGAGAAGGAACUGGGC [Exclusion 1 (MOD1 of Edarti)] (Eterna round: R97, puzzle: Exclusion 1)",54 nM,22.4 nM,
"UCCUCCUAAGGAUAUGCGUCGGUUGAACUAUGCUAAAAGGGACAUGAGGAUCACCCAUGUAGAAGGUAGGGCAG [Eternabot (L2) Solution 86] (Eterna round: R97, puzzle: Exclusion 2)",72.5 nM,48.8 nM,
"UCCUCGUCAGGAUAUGUCUCGACGCGGUCCGCGUGCGGUCAACAGAAGGGACAUGAGGAUCACCCAUGUGCAGA [Eternabot (Original) Solution 38] (Eterna round: R97, puzzle: Exclusion 4)",228 nM,204 nM,
"UCCUGGCGAGGAUAUACAAAGAUUUUUUCGUUUUGUUUCGAACAUGAGGAUCACCCAUGUAGAAGGUGCUGCUG [JR_Ex2_Sub015] (Eterna round: R97, puzzle: Exclusion 2)",46.4 nM,46.7 nM,
UCCUUACAUGAGGAUCACCCAUGUCAGGAUAUCUCCACACUGCGCUUGCGCAGUGUAUAGAGAAGGGACGGGCU [JL ViennaUCT Aner mod 7] (puzzle: Exclusion 1),,,apparent KD of MS2 coat protein [2]: 28.5 nM
